Source: patent US20230391843A1, “COMPOSITION AND METHOD FOR CONTROLLING HEAT GENERATION WITHIN ORGANISM, AND USE” (GUANGDONG JIANTEBO BIOTECHNOLOGY CO., LTD., priority 2021, published 2023)
“Also recorded” adds a separate entry of the source.

Legend:
primary beige adipocytes = primary beige adipocytes treated with IL-27 in vitro, immunoblot analysis; type: cell-based, mouse; conditions: rmIL-27 100 ng/ml
Experimental: A whole cell lysate or tissue lysate was extracted using an RIPA lysis buffer (Beyotime, China) supplemented with a complete protease inhibitor (Roche) and a phosphatase inhibitor Cocktail 2 (P5726, Sigma), and a supernatant was used for subsequent analysis. Proteins were diluted in a Loading dye (BL502A, Bio-sharp), heated at 95° C. for 10 min, and separated on 4-12% polyacrylamide gel. The proteins were transferred to polyvinylidene fluoride membranes and western blot experiments were performed with the commercial antibodies and methods-reagents mentioned in the drawing.
Inguinal subcutaneous adipose tissue was minced and digested at 37° C. for 45 min in PBS containing collagenase II (1 mg/ml), and a tissue suspension was filtered by a 100 μm cell filter and centrifuged at 600 g for 5 min, such that a stromal vascular fraction (SVF) was granulated. After granulation, the product was further filtered by a 40 μm cell filter and placed on a collagen-coated plate. After overnight culturing, a supernatant containing non-adherent cells was removed. Precursor adipocytes were grown in DMEM containing 10% FBS and insulin (5 μg/ml) for fusion. The product was treated for 2 days with dexamethasone (1 μM), 3-isobutyl-1-methylxanthine (IBMX, 0.5 mM), insulin (5 μg/ml), indomethacin (125 nM) and rosiglitazone (1 μM) to induce differentiation of the fused cells, and then independently treated for another 5 days with insulin (5 μg/ml) and triiodothyronine (T3, 1 nM). On day 7, the cells were pretreated overnight with and without IL-27 (100 ng/ml) and then treated with isoproterenol (10 μM) or forskolin (10 μM) for 4-6 hours. IL-27 (100 ng/ml) was added for treatment for 0-120 min on day 7 for protein phosphorylation analysis, or for 12-24 h for protein expression level detection. For signal inhibition experiments, either the STAT3 inhibitor (C188-9, 10 μM) or the p38 MAPK inhibitor (SB203580, 10 μM) was added to a medium 0.5 h prior to and during IL-27 treatment.
FIG. 3A-FIG. 3M show promotion of heat generation by IL-27. As for FIG. 3A: primary beige adipocytes were generated in vitro from an SVF of WT SCW and then treated with rmIL-27 (100 ng/ml) or PBS for 24 hours. Cells were lysed and a protein extract was used for immunoblot analysis. As for FIG. 3B: immunoblot analysis of phosphorylation of the protein in the WT primary beige adipocyte extract treated with the rmIL-27 (100 ng/ml) for a specified time was shown. As for FIG. 3C: the primary beige adipocytes derived from WT SCW were generated in vitro. The STAT3 inhibitor (C188-9, 10 μM) or p38 MAPK inhibitor (SB203580, 10 μM) was added to a medium 0.5 hours prior to culturing and in duration of rmIL-27 treatment (100 ng/ml for 12 hours). Cell lysis and the representative immunoblot of the protein extract were shown. As for FIG. 3D-FIG. 3J: WT mice were fed with HFD for 32 weeks and then injected intraperitoneally. Every other day, rmIL-27 (100 μg/kg) or PBS was injected for 15 days. As for FIG. 3D: body weight was recorded at specified time points (n=8). As for FIG. 3E: after rmIL-27 treatment for 15 days, adipose tissue was collected and weighed (n=6-8) for a glucose tolerance test (FIG. 3F, n=8) and an insulin tolerance test (FIG. 3G, n=8). As for FIG. 3H: the mice were fasted overnight and then injected intraperitoneally with 0.75 U/kg insulin (15 min). Immunoblot analysis of pAKT (pSer473) in epididymal fat was performed. As for FIG. 3I: after rmIL-27 treatment for 15 days, oil-red O liver tissue staining was performed, with the scale=50 μm. As for FIG. 3J-FIG. 3M: UCP1-KO mice were fed with HFD for 20 weeks and then injected intraperitoneally with rmIL-27 (100 μg/kg) or PBS every other day for 15 days. As for FIG. 3J: body weight was recorded at specified time points (n=6). As for FIG. 3K: adipose tissue and livers were collected and weighed after rmIL-27 treatment for 15 days (n=6), and GTT (FIG. 3L, n=6) and ITT (FIG. 3M, n=4) tests were performed after rmIL-27 treatment for 15 days. […]

EBI-3 KO mice = assay: cold stimulation experiment at 4° C. after rmIL-27 treatment of EBI-3 KO mice; type: in vivo, mouse; conditions: rmIL-27 100 μg/kg intraperitoneally for 7 consecutive days, then cold stimulation at 4° C.
Experimental: Cold stimulation experiments were performed in a temperature controlled cold room. Mice were placed individually in individual cages (without bedding) at 4° C. The mice had free access to food and water. Rectal core body temperatures were recorded every 2 hours using a digital thermometer and a rectal thermocouple probe (TH-212, HICHANCE, China). If the core body temperature fell below 20° C., the individual mice were euthanized and scored as events for survival analysis.
8-week-old WT mice were fed with HFD for 32 weeks and randomly divided into 2 groups. The mice were injected intraperitoneally with rmIL-27 (100 μg/kg) or PBS for 15 consecutive days, and then, metabolic analysis was performed. 12-month-old EBI-3 KO mice were randomly divided into 2 groups, and injected intraperitoneally with rmIL-27 (100 μg/kg) or PBS for 7 consecutive days. The mice were then subjected to a cold stimulation experiment at 4° C.
As for FIG. 7A-FIG. 7C: 8-week-old Il27ra^f/f and Ucp1-Cre Il27ra^f/f mice were fed with HFD for 10 weeks. After HFD treatment for 10 weeks, GTT (FIG. 7A) and ITT (FIG. 7B) (n=5-6) tests were performed, and adipose tissue and livers were collected and weighed (FIG. 7C, n=5-6). […] Expression of UCP1 was detected by immunoblot. […] Expression of UCP1 or PPARα was analyzed by an immunoblot. […] A band density was quantified and normalized with ImageJ. […]

[1] = 0-120 min, immunoblot (FIG. 3B)

B1: IL-27: Recombinant mouse IL-27 (EBI-3/p28 heterodimer cytokine), purchased from Biolegend (577408) (protein, UniProt O35228 19-228; Q8K3I6 29-234, looked up)
Interleukin-27 subunit beta: YTETALVALSQPRVQCHASRYPVAVDCSWTPLQAPNSTRSTSFIATYRLGVATQQQSQPCLQRSPQASRCTIPDVHLFSTVPYMLNVTAVHPGGASSSLLAFVAERIIKPDPPEGVRLRTAGQRLQVLWHPPASWPFPDIFSLKYRLRYRRRGASHFRQVGPIEATTFTLRNSKPHAKYCIQVSAQDLTDYGKPSDWSLPGQVESAPHKP
Interleukin-27 subunit alpha: FPTDPLSLQELRREFTVSLYLARKLLSEVQGYVHSFAESRLPGVNLDLLPLGYHLPNVSLTFQAWHHLSDSERLCFLATTLRPFPAMLGGLGTQGTWTSSEREQLWAMRLDLRDLHRHLRFQVLAAGFKCSKEEEDKEEEEEEEEEEKKLPLGALGGPNQVSSQVSWPQLLYTYQLLHSLELVLSRAVRDLLLLSLPRRPGSAWDS
Primary beige adipocytes; [1]
  Phosphorylation of p38 MAPK: significantly increased
  pSTAT3: only transiently induced and rapidly regressed
Primary beige adipocytes; 24 hours, immunoblot (FIG. 3A)
  expression of UCP1: significantly increased
  expression of peroxisome proliferator-activated receptor α (PPARα): up-regulated
  expression of peroxisome proliferator-activated receptor γ co-activator 1α (PGC-1α): up-regulated
Primary beige adipocytes; immunoblot (FIG. 3A-3C)
  activation of ATF2: enhanced
EBI-3 KO mice
  UCP1-mediated heat generation: improved
EBI-3 KO mice; rectal temperature
  body temperature / hypothermia in cold stimulation: avoided low temperatures; also recorded: reverse hypothermia
